{"source": "patent US8691944", "about": "(RESEARCH FOUNDATION FOR THE STATE UNIVERSITY OF NEW YORK, dated 2014)", "binders": {"B1": {"name": "platelet-derived growth factor-BB (PDGF-BB) (ligand, UniProt P01127 82-190, looked up)", "chain": "SLGSLTIAEPAMIAECKTRTEVFEISRRLIDRTNANFLVWPPCVEVQRCSGCCNNRNVQCRPTQVQLRPVQVRKIEIVRKKPIFKKATVTLEDHLACKCETVAAARPVT", "notes": "Two B chains by its name BB"}, "B2": {"name": "peptide 1 (QPSHISKYILRWRPKNSVGRWKEAT) (peptide)", "peptide": "QPSHISKYILRWRPKNSVGRWKEAT", "notes": "Synthetic peptide; also called FN634-658"}, "B3": {"name": "peptide 2 (QLISIQQYGHQEVTRFDFTTTSTST) (peptide)", "peptide": "QLISIQQYGHQEVTRFDFTTTSTST", "notes": "Synthetic peptide"}, "B4": {"name": "vascular endothelial growth factor A (VEGF-A) (ligand, UniProt P15692-4 27-191, looked up)", "chain": "APMAEGGGQNHHEVVKFMDVYQRSYCHPIETLVDIFQEYPDEIEYIFKPSCVPLMRCGGCCNDEGLECVPTEESNITMQIMRIKPHQGQHIGEMSFLQHNKCECRPKKDRARQENPCGPCSERRKHLFVQDPQTCKCSCKNTDSRCKARQLELNERTCRCDKPRR"}, "B5": {"name": "peptide 3 (NGQTPIQRTIKPDVRSYTITGLQPGT) (peptide)", "peptide": "NGQTPIQRTIKPDVRSYTITGLQPGT", "notes": "Synthetic peptide"}, "B6": {"name": "peptide 4 (QPSVGQQMIFEEHGFRRTTPPTTAT) (peptide)", "peptide": "QPSVGQQMIFEEHGFRRTTPPTTAT", "notes": "Synthetic peptide"}, "B7": {"name": "FN634-648 (QPSHISKYILRWRPK) (peptide)", "peptide": "QPSHISKYILRWRPK"}, "B8": {"name": "ILRWRPKNSVGRWK (peptide)", "peptide": "ILRWRPKNSVGRWK"}, "B9": {"name": "FN630-648 (WNAPQPSHISKYILRWRPK) (peptide)", "peptide": "WNAPQPSHISKYILRWRPK"}, "B10": {"name": "EGF (ligand, UniProt P01133 971-1023, looked up)", "chain": "NSDSECPLSHDGYCLHDGVCMYIEALDKYACNCVVGYIGERCQYRDLKWWELR"}, "B11": {"name": "FN634-641 (QPSHISKY) (peptide)", "peptide": "QPSHISKY"}, "B12": {"name": "FN641-654 (YILRWRPKNSVGRW) (peptide)", "peptide": "YILRWRPKNSVGRW"}, "B13": {"name": "FN648-667 (KNSVGRWKEATIPGHLNSYT) (peptide)", "peptide": "KNSVGRWKEATIPGHLNSYT"}}, "key": {"[1]": {"biological_target": "T1, 70 kDa amino terminus of FN (FN70) (UniProt P02751 32-608, limits assumed)", "T1 construct": "domain: 70 kDa amino terminus of FN (FN70); also called amino-terminal end of FN", "T1 sequence (P02751 32-608 limits assumed)": "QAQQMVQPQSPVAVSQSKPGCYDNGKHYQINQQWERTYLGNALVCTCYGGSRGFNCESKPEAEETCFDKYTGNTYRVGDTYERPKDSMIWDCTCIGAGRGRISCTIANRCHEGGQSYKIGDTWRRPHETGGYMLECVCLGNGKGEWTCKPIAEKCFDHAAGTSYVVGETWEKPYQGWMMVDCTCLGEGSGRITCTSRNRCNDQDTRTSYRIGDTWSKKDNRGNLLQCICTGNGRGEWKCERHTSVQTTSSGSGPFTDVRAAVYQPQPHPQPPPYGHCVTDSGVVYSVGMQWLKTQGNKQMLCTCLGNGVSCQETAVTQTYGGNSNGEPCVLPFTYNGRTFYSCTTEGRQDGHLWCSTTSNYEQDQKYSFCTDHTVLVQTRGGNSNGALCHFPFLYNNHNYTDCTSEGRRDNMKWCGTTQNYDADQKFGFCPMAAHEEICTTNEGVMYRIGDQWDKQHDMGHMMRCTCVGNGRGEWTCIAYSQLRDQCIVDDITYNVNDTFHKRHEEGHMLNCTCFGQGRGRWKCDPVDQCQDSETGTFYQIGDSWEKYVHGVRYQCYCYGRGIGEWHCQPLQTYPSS", "experiment": "equilibrium binding, confirmed by surface plasmon resonance"}, "FNIII1-2 [2]": {"biological_target": "T2, FNIII1-2 (human, UniProt P02751 610-809, limits assumed)", "T2 construct": "domain: FNIII1-2; Recombinant domain", "T2 sequence (P02751 other isoform, or with tags, fused parts or gaps limits assumed)": "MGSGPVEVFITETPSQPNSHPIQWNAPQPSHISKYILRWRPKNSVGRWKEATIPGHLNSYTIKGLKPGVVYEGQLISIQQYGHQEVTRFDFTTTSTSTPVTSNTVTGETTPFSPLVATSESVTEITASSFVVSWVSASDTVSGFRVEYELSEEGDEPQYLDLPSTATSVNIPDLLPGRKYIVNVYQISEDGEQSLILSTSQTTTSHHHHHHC", "experiment": "surface plasmon resonance"}, "FNIII12-14 [3]": {"biological_target": "T3, FNIII12-14 (human, UniProt P02751 1812-2082)", "T3 construct": "domain: FNIII12-14; Recombinant domain", "T3 sequence (P02751 other isoform, or with tags, fused parts or gaps limits assumed)": "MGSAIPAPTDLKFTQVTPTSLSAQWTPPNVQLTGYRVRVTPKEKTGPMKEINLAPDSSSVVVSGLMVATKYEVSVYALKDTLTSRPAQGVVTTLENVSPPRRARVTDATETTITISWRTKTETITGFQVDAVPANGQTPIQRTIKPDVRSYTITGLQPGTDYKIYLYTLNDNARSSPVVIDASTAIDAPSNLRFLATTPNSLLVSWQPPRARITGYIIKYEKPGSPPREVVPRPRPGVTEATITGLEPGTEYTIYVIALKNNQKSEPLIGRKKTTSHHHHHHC", "experiment": "binding assay, method not restated (plasmon resonance in the sentence before)"}, "[4]": {"biological_target": "T4, FNIII8-11 (C), central cell-binding domain of fibronectin containing RGD (human, UniProt P02751 1357-1721)", "T4 construct": "domain: FNIII8-11; Recombinant domain", "T4 sequence (P02751 other isoform, or with tags, fused parts or gaps limits assumed)": "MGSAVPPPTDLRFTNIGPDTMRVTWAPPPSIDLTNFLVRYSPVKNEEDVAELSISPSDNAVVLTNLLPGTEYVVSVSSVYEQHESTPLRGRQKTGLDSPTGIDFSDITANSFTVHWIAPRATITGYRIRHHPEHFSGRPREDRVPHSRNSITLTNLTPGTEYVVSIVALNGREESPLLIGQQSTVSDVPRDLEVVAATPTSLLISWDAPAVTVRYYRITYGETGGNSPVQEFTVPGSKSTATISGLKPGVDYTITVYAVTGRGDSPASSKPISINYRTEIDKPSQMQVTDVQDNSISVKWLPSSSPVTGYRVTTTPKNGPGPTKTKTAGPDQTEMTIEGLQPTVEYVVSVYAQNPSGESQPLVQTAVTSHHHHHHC", "experiment": "binding assay, method not restated"}, "FNIII1-7 [5]": {"biological_target": "T5, FNIII1-7 (UniProt P02751 610-1265, limits assumed)", "T5 construct": "domain: FNIII1-7", "T5 sequence (P02751 610-1265 limits assumed)": "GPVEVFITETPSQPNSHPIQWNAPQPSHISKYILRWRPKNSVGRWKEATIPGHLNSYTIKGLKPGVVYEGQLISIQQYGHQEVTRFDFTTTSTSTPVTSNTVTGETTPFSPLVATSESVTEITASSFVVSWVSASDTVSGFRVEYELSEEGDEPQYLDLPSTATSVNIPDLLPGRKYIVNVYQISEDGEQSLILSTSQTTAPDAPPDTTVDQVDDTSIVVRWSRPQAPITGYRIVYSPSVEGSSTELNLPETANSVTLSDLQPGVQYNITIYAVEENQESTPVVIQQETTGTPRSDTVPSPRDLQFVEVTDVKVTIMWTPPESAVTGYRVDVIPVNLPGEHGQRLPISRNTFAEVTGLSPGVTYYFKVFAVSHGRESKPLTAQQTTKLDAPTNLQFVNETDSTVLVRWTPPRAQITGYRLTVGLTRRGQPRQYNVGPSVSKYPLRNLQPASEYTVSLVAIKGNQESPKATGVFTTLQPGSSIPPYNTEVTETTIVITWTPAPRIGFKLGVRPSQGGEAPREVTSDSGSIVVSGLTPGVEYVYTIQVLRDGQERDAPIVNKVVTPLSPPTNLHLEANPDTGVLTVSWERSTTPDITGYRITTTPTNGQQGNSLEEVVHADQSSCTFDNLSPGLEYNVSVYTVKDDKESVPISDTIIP", "experiment": "plasmon surface resonance, kinetic binding"}, "[6]": {"biological_target": "T6, FNIII12-V15 (HV), composite heparinII-binding and variably-spliced IIICS domains of fibronectin (human, UniProt P02751 1812-2288)", "T6 construct": "domain: FNIII12-V15; Recombinant domain made in E. coli; Some constructs carried GST at the C-terminus", "T6 sequence (P02751 other isoform, or with tags, fused parts or gaps limits assumed)": "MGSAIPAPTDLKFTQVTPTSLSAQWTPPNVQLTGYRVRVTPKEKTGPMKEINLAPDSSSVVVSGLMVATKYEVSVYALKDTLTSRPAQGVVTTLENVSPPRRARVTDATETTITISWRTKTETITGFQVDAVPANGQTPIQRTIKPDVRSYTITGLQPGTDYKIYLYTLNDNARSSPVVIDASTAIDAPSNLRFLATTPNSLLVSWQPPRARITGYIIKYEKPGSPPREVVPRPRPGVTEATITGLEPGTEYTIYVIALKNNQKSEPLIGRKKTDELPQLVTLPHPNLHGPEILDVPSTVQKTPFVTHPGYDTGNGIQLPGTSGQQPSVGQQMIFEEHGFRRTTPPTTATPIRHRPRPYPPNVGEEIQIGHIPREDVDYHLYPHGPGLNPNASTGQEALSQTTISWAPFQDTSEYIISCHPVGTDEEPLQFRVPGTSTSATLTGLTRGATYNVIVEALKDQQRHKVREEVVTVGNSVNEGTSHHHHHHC", "experiment": "plasmon surface resonance, kinetic binding"}, "intact fibronectin [7]": {"biological_target": "T7, intact fibronectin (UniProt P02751-8 32-2296, limits assumed)", "T7 construct": "also called FN; intact FN", "experiment": "radiolabeled GF binding to intact FN, non linear regression"}, "FNIII12-14 [8]": {"biological_target": "T3, FNIII12-14", "experiment": "equilibrium binding"}, "[9]": {"biological_target": "T8, FNIII12-15 (H), heparinII-binding domain of fibronectin (human, UniProt P02751-10 1631-1987)", "T8 construct": "domain: FNIII12-15; Recombinant domain; also called HepII domain", "T8 sequence (P02751 other isoform, or with tags, fused parts or gaps limits assumed)": "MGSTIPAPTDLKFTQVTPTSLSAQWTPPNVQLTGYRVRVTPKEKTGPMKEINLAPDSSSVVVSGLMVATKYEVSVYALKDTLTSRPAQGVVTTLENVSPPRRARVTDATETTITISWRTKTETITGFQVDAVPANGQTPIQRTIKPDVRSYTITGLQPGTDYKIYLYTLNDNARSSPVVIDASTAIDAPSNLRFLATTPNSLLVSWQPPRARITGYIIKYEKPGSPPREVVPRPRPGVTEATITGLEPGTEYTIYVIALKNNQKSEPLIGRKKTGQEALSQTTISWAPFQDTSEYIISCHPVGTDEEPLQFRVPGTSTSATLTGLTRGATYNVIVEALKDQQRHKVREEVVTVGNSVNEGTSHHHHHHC", "experiment": "equilibrium binding"}, "FNIII1-7 [10]": {"biological_target": "T5, FNIII1-7", "experiment": "equilibrium binding"}, "FNIII3-6 [11]": {"biological_target": "T9, FNIII3-6 (human, UniProt P02751 810-1172, limits assumed)", "T9 construct": "domain: FNIII3-6; Recombinant domain", "T9 sequence (P02751 other isoform, or with tags, fused parts or gaps limits assumed)": "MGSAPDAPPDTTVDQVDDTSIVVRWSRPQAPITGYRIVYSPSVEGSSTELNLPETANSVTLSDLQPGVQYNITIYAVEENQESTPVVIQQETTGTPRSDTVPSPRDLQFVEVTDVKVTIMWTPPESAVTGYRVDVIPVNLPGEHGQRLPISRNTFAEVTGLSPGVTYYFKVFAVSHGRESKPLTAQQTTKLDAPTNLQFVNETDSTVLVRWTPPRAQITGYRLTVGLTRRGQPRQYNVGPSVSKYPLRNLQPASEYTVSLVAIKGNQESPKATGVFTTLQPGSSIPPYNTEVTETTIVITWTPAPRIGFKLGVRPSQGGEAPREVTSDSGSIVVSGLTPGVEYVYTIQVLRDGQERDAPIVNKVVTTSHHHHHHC", "experiment": "equilibrium binding"}, "FNIII12-13": {"biological_target": "T10, FNIII12-13 (UniProt P02751 1812-1992)", "T10 construct": "domain: FNIII12-13", "T10 sequence (P02751 1812-1992 limits assumed)": "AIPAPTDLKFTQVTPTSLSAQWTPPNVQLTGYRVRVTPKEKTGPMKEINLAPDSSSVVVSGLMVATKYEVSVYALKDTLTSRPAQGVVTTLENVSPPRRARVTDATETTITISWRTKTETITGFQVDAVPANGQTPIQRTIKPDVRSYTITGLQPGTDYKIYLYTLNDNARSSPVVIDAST", "experiment": "equilibrium binding"}, "[12]": {"biological_target": "T6, FNIII12-V15 (HV), composite …", "experiment": "equilibrium binding"}, "FNIII1-2 [13]": {"biological_target": "T2, FNIII1-2", "experiment": "equilibrium binding"}, "EGF": {"biological_target": "B10", "experiment": "binding assay, method not restated"}, "TGF-α": {"biological_target": "TGF-α (UniProt P01135 40-89)", "sequence (P01135 40-89 limits assumed)": "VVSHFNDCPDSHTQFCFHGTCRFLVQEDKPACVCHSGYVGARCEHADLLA", "experiment": "binding assay, method not restated"}, "FGF-1": {"biological_target": "FGF-1 (UniProt P05230 16-155, limits assumed)", "sequence (P05230 16-155 limits assumed)": "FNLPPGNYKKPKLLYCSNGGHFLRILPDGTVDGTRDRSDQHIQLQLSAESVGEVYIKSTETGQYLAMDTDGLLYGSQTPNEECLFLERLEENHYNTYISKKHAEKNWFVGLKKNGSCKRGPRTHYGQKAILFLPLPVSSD", "experiment": "binding assay, method not restated"}, "[14]": {"biological_target": "transforming growth factor-β1 (TGF-β1) (UniProt P01137 279-390)", "sequence (P01137 279-390 limits assumed)": "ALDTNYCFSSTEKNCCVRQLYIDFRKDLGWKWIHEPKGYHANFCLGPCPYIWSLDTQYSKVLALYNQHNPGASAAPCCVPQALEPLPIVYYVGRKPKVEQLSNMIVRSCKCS", "experiment": "equilibrium binding"}, "[15]": {"biological_target": "B1", "experiment": "equilibrium binding"}, "[16]": {"biological_target": "B1", "experiment": "binding assay, method not restated"}, "[17]": {"biological_target": "T6, FNIII12-V15 (HV), composite …", "experiment": "plasmon resonance"}, "FNIII1-11": {"biological_target": "T11, FNIII1-11 (human, UniProt P02751-1 610-1630)", "T11 construct": "domain: FNIII1-11; Recombinant domain", "T11 sequence (P02751 other isoform, or with tags, fused parts or gaps limits assumed)": "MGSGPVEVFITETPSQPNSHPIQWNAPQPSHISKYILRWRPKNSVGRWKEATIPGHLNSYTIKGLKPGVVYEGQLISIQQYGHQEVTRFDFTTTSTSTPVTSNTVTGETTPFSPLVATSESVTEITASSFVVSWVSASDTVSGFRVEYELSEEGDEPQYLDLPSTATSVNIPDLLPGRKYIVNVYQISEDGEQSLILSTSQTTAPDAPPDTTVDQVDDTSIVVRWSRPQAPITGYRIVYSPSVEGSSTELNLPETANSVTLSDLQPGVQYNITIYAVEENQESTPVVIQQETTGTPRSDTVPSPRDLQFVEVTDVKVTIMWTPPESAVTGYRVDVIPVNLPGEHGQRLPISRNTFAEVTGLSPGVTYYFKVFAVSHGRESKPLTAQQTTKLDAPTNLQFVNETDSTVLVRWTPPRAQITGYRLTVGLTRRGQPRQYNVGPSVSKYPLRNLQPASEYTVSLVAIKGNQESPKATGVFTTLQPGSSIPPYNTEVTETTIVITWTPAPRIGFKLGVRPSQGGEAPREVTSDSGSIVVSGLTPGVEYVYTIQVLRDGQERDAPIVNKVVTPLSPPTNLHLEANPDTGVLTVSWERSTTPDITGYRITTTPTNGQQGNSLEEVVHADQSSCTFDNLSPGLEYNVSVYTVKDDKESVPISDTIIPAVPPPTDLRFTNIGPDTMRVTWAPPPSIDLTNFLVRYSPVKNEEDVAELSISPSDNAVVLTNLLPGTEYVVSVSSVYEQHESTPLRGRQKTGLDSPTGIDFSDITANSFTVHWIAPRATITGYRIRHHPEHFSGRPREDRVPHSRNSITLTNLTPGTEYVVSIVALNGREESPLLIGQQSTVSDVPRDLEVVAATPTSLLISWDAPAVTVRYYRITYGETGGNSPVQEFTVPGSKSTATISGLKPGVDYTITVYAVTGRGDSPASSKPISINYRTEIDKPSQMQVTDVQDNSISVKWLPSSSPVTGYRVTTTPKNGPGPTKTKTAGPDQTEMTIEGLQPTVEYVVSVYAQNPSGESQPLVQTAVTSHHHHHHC", "experiment": "binding assay, method not restated"}, "[18]": {"biological_target": "T1, 70 kDa amino terminus of FN (FN70)", "experiment": "binding assay, method not restated"}, "[19]": {"biological_target": "B1", "experiment": "peptide binding assay"}, "FNIII12-14 [20]": {"biological_target": "T3, FNIII12-14", "experiment": "binding assay, method not restated"}, "[21]": {"biological_target": "T8, FNIII12-15 (H), heparinII-binding …", "experiment": "binding assay, method not restated"}, "FNIII3-6 [22]": {"biological_target": "T9, FNIII3-6", "experiment": "binding assay, method not restated"}, "FNIII1": {"biological_target": "T12, FNIII1 (human, UniProt P02751 610-702, limits assumed)", "T12 construct": "domain: FNIII1; Recombinant domain; also called first type III repeat of FN", "experiment": "binding assay, method not restated"}, "intact fibronectin [23]": {"biological_target": "T7, intact fibronectin", "experiment": "equilibrium binding to FN adsorbed to a surface or coupled to agarose beads"}, "FNIII1-7 [24]": {"biological_target": "T5, FNIII1-7", "experiment": "equilibrium and kinetic binding"}, "[25]": {"biological_target": "T1, 70 kDa amino terminus of FN (FN70)", "experiment": "equilibrium and kinetic binding"}}}
{"binder": "B1", "values": [{"measurement": "binding result", "setting": "[1]", "result": "no binding"}, {"measurement": "Kd", "setting": "FNIII1-2 [2]", "result": 9.1, "unit": "nM"}, {"measurement": "Kd", "setting": "FNIII12-14 [3]", "result": 55, "unit": "nM"}, {"measurement": "binding result", "setting": "[4]", "result": "no binding"}, {"measurement": "Kd", "setting": "FNIII1-7 [5]", "result": 100, "unit": "nM"}, {"measurement": "Kd", "setting": "[6]", "result": 17, "unit": "nM"}, {"measurement": "Kd", "setting": "intact fibronectin [7]", "result": 49, "unit": "nM"}, {"measurement": "Kd", "setting": "FNIII12-14 [8]", "result": 35, "unit": "nM"}, {"measurement": "Kd", "setting": "[9]", "result": 6.8, "unit": "nM"}, {"measurement": "Kd", "setting": "FNIII1-7 [10]", "result": 75, "unit": "nM"}, {"measurement": "binding result", "setting": "FNIII3-6 [11]", "result": "no binding"}, {"measurement": "Kd", "setting": "FNIII12-13", "result": 75, "unit": "nM"}, {"measurement": "Kd", "setting": "[12]", "result": 21, "unit": "nM"}, {"measurement": "Kd", "setting": "FNIII1-2 [13]", "result": 37, "unit": "nM"}]}
{"binder": "B2", "values": [{"measurement": "binding result", "setting": "EGF", "result": "no binding"}, {"measurement": "binding result", "setting": "TGF-α", "result": "no binding"}, {"measurement": "binding result", "setting": "FGF-1", "result": "no binding"}, {"measurement": "Kd", "setting": "[14]", "result": 130, "unit": "nM"}, {"measurement": "Kd", "setting": "[15]", "result": 250, "unit": "nM"}]}
{"binder": "B3", "values": [{"measurement": "binding result", "setting": "EGF", "result": "no binding"}, {"measurement": "binding result", "setting": "TGF-α", "result": "no binding"}, {"measurement": "binding result", "setting": "FGF-1", "result": "no binding"}, {"measurement": "Kd", "setting": "[16]", "result": 110, "unit": "nM"}, {"measurement": "Kd", "setting": "[14]", "result": 270, "unit": "nM"}]}
{"binder": "B4", "values": [{"measurement": "Kd", "setting": "[17]", "result": 0.6, "unit": "nM"}, {"measurement": "binding result", "setting": "FNIII1-11", "result": "no binding"}, {"measurement": "binding result", "setting": "[4]", "result": "no binding"}, {"measurement": "binding result", "setting": "[18]", "result": "no binding"}]}
{"binder": "B5", "values": [{"measurement": "binding result", "setting": "EGF", "result": "no binding"}, {"measurement": "binding result", "setting": "TGF-α", "result": "no binding"}, {"measurement": "binding result", "setting": "FGF-1", "result": "no binding"}, {"measurement": "Kd", "setting": "[14]", "result": 140, "unit": "nM"}]}
{"binder": "B6", "values": [{"measurement": "binding result", "setting": "EGF", "result": "no binding"}, {"measurement": "binding result", "setting": "TGF-α", "result": "no binding"}, {"measurement": "binding result", "setting": "FGF-1", "result": "no binding"}, {"measurement": "Kd", "setting": "[14]", "result": 100, "unit": "nM"}]}
{"binder": "B7", "values": [{"measurement": "Kd", "setting": "[14]", "result": 440, "unit": "nM"}, {"measurement": "Kd", "setting": "[19]", "result": 450, "unit": "nM"}]}
{"binder": "B8", "values": [{"measurement": "Kd", "setting": "[14]", "result": 400, "unit": "nM"}]}
{"binder": "B9", "values": [{"measurement": "Kd", "setting": "[19]", "result": 340, "unit": "nM"}]}
{"binder": "B10", "values": [{"measurement": "binding result", "setting": "[17]", "result": "no binding"}, {"measurement": "binding result", "setting": "FNIII12-14 [20]", "result": "no binding"}, {"measurement": "binding result", "setting": "[21]", "result": "no binding"}, {"measurement": "binding result", "setting": "FNIII3-6 [22]", "result": "no binding"}, {"measurement": "binding result", "setting": "FNIII1", "result": "no binding"}, {"measurement": "binding result", "setting": "[4]", "result": "no binding"}, {"measurement": "binding result", "setting": "intact fibronectin [23]", "result": "no binding"}, {"measurement": "binding result", "setting": "FNIII1-7 [24]", "result": "no binding"}, {"measurement": "binding result", "setting": "[25]", "result": "no binding"}]}
{"binder": "B11", "values": [{"measurement": "binding result", "setting": "[19]", "result": "no binding"}]}
{"binder": "B12", "values": [{"measurement": "binding result", "setting": "[19]", "result": "no binding"}]}
{"binder": "B13", "values": [{"measurement": "binding result", "setting": "[19]", "result": "no binding"}]}
